Assay results reported in publication PMC4790445 (Nature structural & molecular biology, 2015).

Biological target: WT EGFR kinase (residues 696-1022) (human, UniProt P00533 696-1022)
Assay: kinase inhibition kinetics

B1: unphosphorylated Mig6 segment 1+2 (residues 330-399) (domain or fragment, human, UniProt Q9UJM3 330-399, looked up)
chain: SRTPSPKSLPSYLNGVMPPTQSFAPDPKYVSSKALQRQNSEGSASKVPCILPIIENGKKVSSTHYYLLPE
With B1 the Ki was 10 to 20 nM.
